Results: the DeepSol protein solubility set

Assay: soluble on expression in E. coli; label from the status in PepcDB or PDB records

Sequence	soluble on expression in E. coli
MSTYQAATIVAAPNEFRVPFPPFVQISKVQFQREAGSRLLAASGWDGTCRVYEVGKLGDISEKLVFTHGKPLLTCTFAGYNKVAFGGVDHNVKLADIETGNGTQLGSHALAVRCMEFNPMSSLIVSGGWDSSVKLWDARSYGNGAIESVNVSSSVYAMDVLKHTILVGTKDRKIFMYDSRKLREPLQVRDSPLKYQTRAVQFFPTGEAFVVSSIEGRVAVEYVDQSGEEMMKRKYAFKCHREKDTDGTELIHPVHTVAFHPKYGTFATGGADGIVNIWDPFNRKRIIQLHKFETSISSLSFNEDGSQLAIATSYQYEKEIDPSPLPNNSITIRHITDPESRPK	not soluble
MSVAETEIPIPAATPSLTDACVHCGFCLSDCPSYRVLGRETDSPRGRVYLMDSLQQGRIELSDTVVEHFDTCLGCLACTSACPSGVQYDQLIEEMRQRIAQEHRRPWPEAIWRKLLEHHHHHH	not soluble
MSVATGSSETAGGASGGGARVFFQSPRGGAGGSPGSSSGSGSSREDSAPVATAAAAGQVQQQQQRRHQQGKVTVKYDRKELRKRLVLEEWIVEQLGQLYGCEEEEMPEVEIDIDDLLDADSDEERASKLQEALVDCYKPTEEFIKELLSRIRGMRKLSPPQKKSV	soluble
MSVDKSPVYEVKAVPVEKVLANDYNPNVVAPPEMKLLELSIWEDGFTMPCVCYYNKEEDNYILVDGYHRYTVLKTSKRIYKRENGLLPIVVIDKDLSNRMSSTIRHNRARGMHN	soluble
MSVDKSPVYEVKAVPVEKVLANDYNPNVVAPPEMKLLELSIWEDGFTMPCVCYYNKEEDNYILVDGYHRYTVLKTSKRIYKRENGLLPIVVIDKDLSNRMSSTIRHNRARGMHNIELMCNIVAELDRAGMSDQWIMKNIGMDRDELLRLKQISGLADLFANREFSIPDEVAPTETERKTL	not soluble
MSVDPACPQSLPCFEASDCKESSPMPVICGPEENYPSLQMSSAEMPHTETVSPLPSSMDLLIQDSPDSSTSPKGKQPTSAENSVAKKEDKVPVKKQKTRTVFSSTQLCVLNDRFQRQKYLSLQQMQELSNILNLSYKQVKTWFQNQRMKSKRWQKNNWPKNSNGVTQKASAPTYPSLYSSYHQGCLVNPTGNLPMWSNQTWNNSTWSNQTQNIQSWSNHSWNTQTWCTQSWNNQAWNSPFYNCGEESLQSCMHFQPNSPASDLEAALEAAGEGLNVIQQTTRYFSTPQTMDLFLNYSMNMQPEDV	soluble
MSVEAAKNARELLLKEYRAVLSTHSKKWPGFPFGSVVPYCLDAEGRPLILISRIAQHTHNLQADPRCSMLVGERGAEDIQAVGRLTLLAEARQLAEEEVAAAAERYYRYFPESADYHRVHDFDFWVLQPVQWRFIGGFGAIHWLAAERVPLANPFAGEAERGMVEHMNSDHAAAIAHYVELAGLPAHAAAQLAGIDTEGFHLRIGQGLHWLPFPAACGNPGAVRQALVQLARAERWPTVEPEQG	soluble
MSVETILVVGGGISGITTAVEAAEVGYNTVLVEKKPYLGGRAAQLNKYFPKLCPPYCGLEMNFRRIKPNPKITVYTMTEVESVSGQEGNYSVRLKVSPRFVNEKCTACNACAEACPVERPNEFNFGMDKTKAAYLPHVLSYPMRYVIDRDACKDNSCDKCVKACKYNAIDLNMKPQTIEMKVGSIVYATGWNPYDATRMDNLGFGRVKNVITNMMMERLAAPNGPTGGKLLRPSDNKEVKKVVFVQCAGSRDENHLNYCSSICCMASLKQATYVRERIPDSQVVVAYIDLRAPGKYEEFLNKVEADANVKLVKGKVAKIEEDKATGGVILEFEDVEGGGKRHEHADMAVLATGMEPCVKANSMLSFEENGFINGGSAAGIYSTGVAKRPSDVTTAIQDATGMALKSIQSLVRSLEHHHHHH	not soluble
MSVIKIEKALKLDKVIFVDVRTEGEYEEDHILNAINMPLFKNNEHNEVGTIYKMQGKHEAIQKGFDYVSYKLKDIYLQAAELALNYDNIVIYCARGGMRSGSIVNLLSSLGVNVYQLEGGYKAYRNFVLEYLRHVMDTKNFVSVHGLTGTGKTDLLHLLDENGIDVLDLEGIAKNSGSTFGFITFDKKPPSQKNFETKLFESIFFSKENYIFVESESKRVGSVTVPNEIFEAMTREGHHILLECDIENRVDRLCRDYIYDKDEGNILILKECINKFRKRLGNKVVDDYIDLLESGEYKELVKRYLLEYYDPLYMHSVEKYKYSKIINFNDTQKALEDVIDLYESILEGESEC	not soluble
MSVIYQTTITRIGQSAKEALGEQMLITFREGAPADIEEFCFIHCHGELTGALQPGARCELGQHCYPVTAVGSVAEQNLRELGHITLRFDGLREAEFPGTVHVAGPVPDDIAPGCILTFVA	not soluble
MSVKVAFIRHHNLWIKVDGKEIQITKGEYITGPKWSYDGEWLAYVKGKKQSILELYRLKDGKKVTPFHSEASNYQWSPTENIIAFIFTGTLNTFDVEKKNADFENVSAGVGDYAWYPDGKNFLVSSEAHLLPTGWTGAQLYEVQKDAHMNPHKMKHLYALPNEHDDFLALVASGFKWSPDQKWISFLAVPTASWSADSNTLCLVRADGSRFEKVDQMLLNAQWFQWAPSKNILAYIEGSGRVALENKHLKVKELPALQQNIFTPKGYVDWDFVWKNDRVIIVSRAKEAGIETPPEKRPLPSLYEVDSTSNAQHQITKKTNKQGDYHPIFMKKSNQLIWIRSDRKKADVWLAHKDRKQEKKWIENIDVPAWYYEKWNWGNVISVKEELEHHHHHH	soluble
MSVSGLKAELKFLASIFDKNHERFRIVSWKLDELHCQFLVPQQGSPHSLPPPLTLHCNITESYPSSSPIWFVDSEDPNLTSVLERLEDTKNNNLLRQQLKWLICELCSLYNLPKHLDVEMLDQPLPTGQNGTTEEVTSEEEEEEEEMAEDIEDLDHYEMKEEEPISGKKSEDEGIEKENLAILEKIRKTQRQDHLNGAVSGSVQASDRLMKELRDIYRSQSYKTGIYSVELINDSLYDWHVKLQKVDPDSPLHSDLQILKEKEGIEYILLNFSFKDNFPFDPPFVRVVLPVLSGGYVLGGGALCMELLTKQGWSSAYSIESVIMQINATLVKGKARVQFGANKNQYNLARAQQSYNSIVQIHEKNGWYTPPKEDG	soluble
MSVSKKLFSTAVRGKSWWSHVEMGPPDAILGVTEAFKADSNPKKINLGVGAYRDDQGKPFVLPSVKEAERQVIAANLDKEYAGIVGLPEFTKLSAQLALGENSDVIKNKRIFTTQSISGTGALRIGSEFLSKYAKTKVIYQPTPTWGNHVPIFKFAGVDVKQYRYYDKSTCGFDETGALADIAQIPEGSTILLHACAHNPTGVDPSRDQWKKISDIVKKRNLFVFFDMAYQGFASGDVDNDAFAVRYFVEQGHNIVLSQSFAKNMGLYGERVGAFSVVTSDADEAARVASQVKILIRPLYSNPPVHGARIASRILADPALNKQWLGDVKLMADRIITMRTTLKDLLAKEGSTRNWEHITNQIGMFCFTGINPQQVEKLIKEHSVYLTKDGRISVAGISSNNVAYLAHALHQVTK	not soluble
MSVSLLRGRTVRRVLSVLVVAGLLGAGATGCSNDAGAKTENTVDASPTPTNTPTDGEGDSEGAEEPVEDTPAEPEQRPVPEEPEAMKTGDKAGAIAAATFFVEVIEYDATQPDSRFFSKYAYEECGWCNEYKKTHEQQANSNFSLINTNINLEDIKTASFAGEGSVLWSVPINANVSSHYKSKKDDEVVETEHTLTGNMLVGYRNGQWLLVEGDLLVK	not soluble
MSVSNMPPIDRAEQSTAHEIQQAKVIDLNDRVLNLDNPDDKMISAFANYAVQTENWQQNALQALTSDKKGLTPEKLLVLQDHVLNYNVEVSLVGTLARKIVAAVETLTRS	soluble
MSVTFPSSGCPSFFNIFYEEGIVMKLTIYYDGQFWVGVVEVVDNGKLRAFRHLFGKEPRDSEVLEFVHNQLLNMMAQAEQEGVRLQGRRQKKINPKRLQRQVSKELKNAGVTSKAQEAIKLELEARKQKKKQIMKEQREHVKEQRYMLKKQKAKKKHRGKLEHHHHHH	soluble
MSVVDMSAEKMTKLEENLQRAVALKKTVDRWRNFHIHCMWQTTLDQRRNLFAALRMKDTKEQELALSNKQLLVVRQAALHELFEKEYQQYQQELNQMGKAFYEERL	not soluble
MSYLLALDAGTGSIRAVIFDLNGRQLAVGQAEWKHLSVDNVPGSMEFDLTTNWQLACQCIRQALDAARLSAADIQSVACCSMREGIVLYDRNGEAIWACANVDARASREVAELKEIHDFRFESEVYEVSGQTLALSAMPRLLWLAHHRPDIYRKAATITMISDWLAAKLSGELAVDPSNAGTTGMLDLFSRDWRPALLDMAGLRADMLSPVKETGTLLGAVTEAAAQQSGLRAGTPVVMGGGD	not soluble
